“Also recorded” adds a separate entry of the source. Ends that are not written are not given here.
Tests used:
SF1 [1] = target: T1, SF1 (Bos taurus, UniProt Q04752); test: GST pull-down binding assay; parameters: The coding region for the wild type bovine SF1 was first subcloned into a yeast expression vector, pGBT9; expressed in transfected cells; host or cells: yeast (Y187, or Y187 x CG1945 diploids); species or system bovine; settings: GST fusion on glutathione Sepharose beads, 2 hour at 4° C.
T1 sequence (Q04752 whole entry, the tested form may be a part): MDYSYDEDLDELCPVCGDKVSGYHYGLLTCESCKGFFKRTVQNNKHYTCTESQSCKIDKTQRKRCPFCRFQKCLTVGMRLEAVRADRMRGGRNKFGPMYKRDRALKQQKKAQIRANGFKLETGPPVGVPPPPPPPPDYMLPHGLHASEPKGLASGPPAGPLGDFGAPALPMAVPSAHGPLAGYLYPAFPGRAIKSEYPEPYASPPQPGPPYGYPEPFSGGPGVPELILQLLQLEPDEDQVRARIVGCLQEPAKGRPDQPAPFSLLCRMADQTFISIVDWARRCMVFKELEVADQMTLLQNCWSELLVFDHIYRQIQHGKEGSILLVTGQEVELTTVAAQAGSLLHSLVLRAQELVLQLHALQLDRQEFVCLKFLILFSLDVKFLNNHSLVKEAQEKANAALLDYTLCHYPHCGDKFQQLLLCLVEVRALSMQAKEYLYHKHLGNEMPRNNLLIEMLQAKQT
Experimental: To further confirm the interaction between PNRC and SF1 which was detected in both the yeast and the mammalian two-hybrid assays, a GST pull-down binding assay was performed to study the direct binding between PNRC and SF1 in vitro. The PNRC cDNA fragments were generated by PCR and inserted into E. coli expression vector pGEX2TK (Pharnacia) through a BamHI site to express GST-PNRC wild type and deletion mutants fusion proteins. Wild type bovine SF1 cDNA in pSG5 vector was translated in vitro in the presence of [^35S]methionine using the TNT Coupled Reticulocyte Lysate System (Promega, Madison, Wis.). GST and deleted PNRC fusion proteins, GST-PNRC270-327 and GST-PNRC278-300, were prepared using the affinity matrix Glutathione Sepharose 4B (Pharmacia) according to the supplier's instructions. The washed beads containing about 10 μg GST fusion protein were incubated for 2 hour at 4° C. with 4 μl in vitro translated, [^35S]methionine-labeled SF1 in a total volume of 150 μl incubation buffer (50 mM Kpi, pH 7.4, 100 mM NaCl, 1 mM MgCl2, 10% glycerol, 0.1% Tween 20, 1.5% BSA) (Treuter et al., 1998). […]
PNRC fragments, including PNRC270-327 and PNRC278-300 were expressed as fusion proteins with glutathione S-transferase (GST) in E. coli BL21, purified with glutathione Sepharose 4B beads, and tested for their ability to bind in vitro translated [^35S]methionine-labeled SF1 in pull-down assays.

SF1 [2] = target: T1, SF1; test: Yeast two-hybrid assay (HIS3 / β-galactosidase reporter); assay type: cell-based, bovine; parameters: The coding region for the wild type bovine SF1 was first subcloned into a yeast expression vector, pGBT9; expressed in transfected cells; host or cells: yeast (Y187, or Y187 x CG1945 diploids); settings: no ligand
Experimental: (§1) The protein-protein interactions between the full-length PNRC or PNRC fragments and SF1, ERRα1, and several other nuclear receptors were analyzed by yeast two-hybrid assays. The yeast two-hybrid assay was used to test if PNRC also interacts with other members of the nuclear receptor superfamily. pGBT9-ERRα-1 yeast expression plasmid was prepared by inserting the PCR-amplified ERRA-1 coding region into pGBT9 through an EcoRI site. To construct the plasmid pGBT9-ER274-595, the coding sequence from amino acids 274 to 595 (LBD) of ERα was amplified by PCR with the sense primer 5′-[…]-3′ (SEQ ID NO:1) and antisense primer 5′-[…]-3′ (SEQ ID NO:2) and cloned into the EcoRI/,SalI site of the pGBT9 yeast expression plasmid. pSG5-GRIP1 and several yeast expression plasmids coding for fusion proteins of Gal4-DBD and HBDs of AR, GR, PR, TR, RAR, and RXR in pGBT9 vector were kindly provided by Dr. Michael R. Stallcup (University of Southern California, Los Angeles, Calif.) (Voegel et al., 1996; Hong et al., 1996; Ding et al., 1998). The yeast mating approach was used in yeast two-hybrid assays to study protein-protein interactions as described in Clontech's protocol. Briefly, pGBT9 (DNA-BD vector only), pGBT9/target plasnmids for SF1, ERRα1, and other HBDs of nuclear receptors, and DNA-BD/control plasmids (as negative control) were introduced into the reporter strain Y187, and the AD vector alone or wild type PNRC and its deleted fragments-containing pACT2 derivatives were used to transform yeast strain CG1945. The yeast mating was performed by picking one colony from each type and growing both colonies in liquid YPD medium with or without a proper ligand at the following concentrations: 100 nM of estradiol for ER; 10 μM of deoxycorticosterone for GR; 100 nM of dihydrotestosterone for AR; 500 nM of progesterone for PR; 10 μM of T3 for TR; 10 μM of all-trans-retinoic acid for RAR; and 10 μM of 9-cis-retinoic acid for RXR. The same amount of an aliquot of the mating culture was spread on both SD/-Leu/-Trp plates to select diploid strains bearing both plasmids and SD/-Leu/-Trp/-His/+3-AT plates to score the growth of the diploid cells that express the two interacting target proteins. The His3 positive colonies were further analyzed for β-galactosidase activity by liquid β-galactosidase activity measurement as essentially described in the protocol.
(§2) Yeast strains Y187 expressing the Gal4DB fusion to the nuclear receptors and CG1945expressing Gal4AD alone or Gal4AD-PNRC fusion protein were mated by co-culturing, and selected for the presence of both two-hybrid plasmids. The expression of interacting hybrid proteins in yeast diploids was analyzed to determine if there was induction of HIS3 expression as shown in FIG. 1A and LacZ expression as shown in FIGS. 1B and 1C. […] As shown in FIGS. 1A-C, PNRC also interacted specifically with all seven nuclear receptor HBDs, including ER, AR, GR, TR, PR, RAR and RXR, and these interactions were completely ligand-dependent. […] However, no interactions occurred either between PNRC and an irrelevant protein such as human lamin C protein or between nuclear receptors and Gal4activation domain alone.

SF1 [3] = target: T1, SF1; test: Mammalian two-hybrid assay in SK-BR-3 cells (CAT reporter); assay type: cell-based, bovine; parameters: expressed in transfected cells; host or cells: SK-BR-3
Experimental: The Mammalian MatchMaker two-hybrid assay system (Clontech) was used to confirm the interaction between PNRC and SF1 that was identified in the yeast assays. Because the assays are performed in mammalian cells, proteins are more likely to be in their native conformations, and the results are therefore more likely to represent biologically significant interactions. SK-BR-3 breast cancer cells were cotransfected with three expression plasmids, including pM-SF1 for Gal4 DNA-DB/SF1 fusion protein, pVP16-PNRC for VP16AD-PNRC fusion protein, and a third vector, pG5CAT, to provide the Gal4 DNA-binding site, a promoter, and the CAT reporter gene.
A set of plasmids, named pM-SF1, pVP16-PNRC, pVP16-PNRC270-327, and pVP16-PNRC278-300, for mammalian two-hybrid assays were prepared as follows: SF1 cDNA fragment was excised from pGBT9-SF1 and inserted in frame into Gal4 DNA-binding domain vector pM (Clontech) through an EcoRI site. PCR was used to generate PNRC full length coding region as well as the above mentioned deleted fragments with BclI at both ends. The PCR products were digested with BclI and inserted in proper reading frame into a pVP16 activation domain vector (Clontech) at a BamHI site. Mammalian two-hybrid assays in SK-BR-3 cells were performed according to the procedures described in the Clontech protocol (PT3002-1).

TR HBD = test: Yeast two-hybrid assay (HIS3 / β-galactosidase reporter); assay type: cell-based; settings: 10 μM of T3
Experimental: as §1, §2

RAR HBD = test: as above; assay type: cell-based; settings: 10 μM of all-trans-retinoic acid
Experimental: as §1, §2

PR HBD = test: as above; assay type: cell-based; settings: 500 nM of progesterone
PR HBD, sequence (P06401 679-933 limits assumed): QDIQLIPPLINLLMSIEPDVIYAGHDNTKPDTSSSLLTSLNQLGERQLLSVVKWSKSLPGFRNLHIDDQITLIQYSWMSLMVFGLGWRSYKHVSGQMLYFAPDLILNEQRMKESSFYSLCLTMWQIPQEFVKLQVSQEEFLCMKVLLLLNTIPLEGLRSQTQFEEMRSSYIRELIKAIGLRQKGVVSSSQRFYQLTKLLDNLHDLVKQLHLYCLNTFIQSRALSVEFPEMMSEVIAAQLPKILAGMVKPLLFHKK
Experimental: as §1, §2

RXR HBD = test: as above; assay type: cell-based; settings: 10 μM of 9-cis-retinoic acid
Experimental: as §1, §2

[4] = target: T2, Gal4DBD-SF1 fusion protein (bovine steroidogenic factor 1, pGBT9-SF1) (bovine, UniProt P04386 1-147; Q04752 1-461); test: yeast two-hybrid (HIS3 and LacZ reporters)
T2 construct: Yeast two-hybrid bait; whole wild type coding region; also called DBDGal4-SF1

[5] = target: T3, Gal4DBD fusion of ERα ligand-binding domain, amino acids 274 to 595 (pGBT9-ER274-595) (UniProt P04386 1-147; P03372 274-595); test: yeast two-hybrid (HIS3 and LacZ reporters)
T3 construct: Tested with 100 nM estradiol; also called ER HBD

[6] = target: Gal4DBD-ERRα1 fusion protein (estrogen related receptor α-1, pGBT9-ERRα-1) (UniProt P04386 1-147; P11474 1-423); test: yeast two-hybrid (HIS3 and LacZ reporters)
[7] = target: T4, Gal4 DNA-DB/SF1 fusion protein (pM-SF1) (bovine, UniProt P04386 1-147; Q04752 1-461); test: mammalian two-hybrid, CAT reporter, SK-BR-3 cells
T4 construct: Mammalian two-hybrid construct, expressed in SK-BR-3 cells

[8] = target: T5, Gal4AD-PNRC fusion protein (full-length proline-rich nuclear receptor co-regulatory protein) (human, UniProt Q12796 1-327); test: yeast two-hybrid (HIS3 and LacZ reporters)
T5 construct: Yeast two-hybrid prey; also called wild type PNRC in pACT2; B4-2
T5 sequence (Q12796 whole entry, the tested form may be a part): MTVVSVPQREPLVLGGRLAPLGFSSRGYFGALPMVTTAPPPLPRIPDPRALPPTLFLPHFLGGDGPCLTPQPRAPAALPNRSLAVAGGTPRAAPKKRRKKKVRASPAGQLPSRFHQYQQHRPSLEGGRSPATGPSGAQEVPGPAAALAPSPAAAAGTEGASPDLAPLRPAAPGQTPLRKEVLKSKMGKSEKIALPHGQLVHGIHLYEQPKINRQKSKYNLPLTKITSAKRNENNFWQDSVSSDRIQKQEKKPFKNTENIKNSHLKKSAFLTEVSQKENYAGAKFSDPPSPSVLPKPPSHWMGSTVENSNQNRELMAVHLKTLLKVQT

For “PNRC278-300: 23-amino acid PNRC region aa 278-300 (SEQ ID NO:9), expressed as Gal4AD, VP16 or GST fusion protein (NYAGAKFSDPPSPSVLPKPPSHW; listed as Homo sapiens)”, the “binding of in vitro translated 35S-labeled SF1” value (SF1 [1]) was “found to bind SF1”, the “interaction with SF1” value (SF1 [2]) was “able to interact with SF1” and the “interaction with SF1 in mammalian two-hybrid assay” value (SF1 [3]) was “retain most of the interaction of full length PNRC to SF1”.

In the case of “PNRC/270-327: C-terminal PNRC fragment aa 270-327, expressed as Gal4AD, VP16 or GST fusion protein”, the “binding of in vitro translated 35S-labeled SF1” value (SF1 [1]) is reported as “found to bind SF1” and the “interaction with SF1” value (SF1 [2]) is reported as “about the same; also recorded: stronger than the interaction between PNRC/278-300 and SF1”.

“PNRC278-300 (mutant): PNRC278-300 carrying double mutations P287A and P290A (S-D-A-P-S-A-S, SEQ ID NO:6) (SDAPSAS; MUTAGEN (3) This residue has been changed from a proline.; listed as Homo sapiens)” was tested, and the “interaction with TR” value (TR HBD) was “almost completely abolished the interactions”, the “interaction with RAR” value (RAR HBD) was “almost completely abolished the interactions” and the “interaction with PR” value (PR HBD) was “almost completely abolished the interactions”. The “interaction with RXR” value (RXR HBD) was “almost completely abolished the interactions” and the “interaction with SF1” value (SF1 [2]) was “almost completely abolished the interactions”.

In the case of “PNRC/270-317: PNRC fragment aa 270-317 lacking the NR box, Gal4 AD fusion protein”, the “interaction with SF1” value (SF1 [2]) is reported as “about the same”.

For “NR box: NR box-like sequence LKTLL (aa 319-323; SEQ ID NO:4) of PNRC as fusion protein with Gal4 AD (not fully specified; UniProt Q12796 319-323, looked up, fragment)”, the “interaction with SF1” value (SF1 [2]) was “No interaction was observed”.

“PNRC301-327: PNRC fragment aa 301-327 containing the NR box, Gal4AD fusion protein” was tested, and the “interaction with SF1” value (SF1 [2]) was “could not interact with SF1”.

B1: Gal4 activation domain alone (other, UniProt P04386 768-881, looked up)
chain: ANFNQSGNIADSSLSFTFTNSSNGPNLITTQTNSQALSQPIASSNVHDNFMNNEITASKIDDGNNSKPLSPGWTDQTAYNAFGITTGMFNTTTMDDVYNYLFDDEDTPPNPKKE
notes: Control of the yeast two-hybrid assays; also called Gal4AD; AD vector alone
B1: no binding [4]; no binding [5]; no binding [6].

B2: VP16 activation domain alone (other)
chain: STAPPTDVSLGDELHLDGEDVAMAHADALDDFDLDMLGDGDSPGP
notes: Control of the mammalian two-hybrid assay; also called VP16 AD
B2: no binding [7].

B3: human lamin C protein (irrelevant protein, DNA-BD/control plasmid) (other, UniProt P04386 1-147, looked up)
chain: MKLLSSIEQACDICRLKKLKCSKEKPKCAKCLKNNWECRYSPKTKRSPLTRAHLTEVESRLERLEQLFLLIFPREDLDMILKMDSLQDIKALLTGLFVQDNVNKDAVTDRLASVETDMPLTLRQHRISATSSSEESSNKGQRQLTVSSEEVVSREVSGIKAAYEAELGDARKTLDSVAKERARLQLELSKVREEFKELKARNTKKEGDLIAAQARLKDLEALLNSKEAALSTALSEKRTLEGELHDLRGQVAKLEAALGEAKKQLQDEMLRRVDAENRLQTMKEELDFQKNIYSEELRETKRRHETRLVEID
notes: that lamin C is the DNA-BD control fusion is inferred from these two statements
B3: no binding [8].

Reference: patent US6972178B1, “Drug screening using a proline-rich nuclear receptor co-regulatory protein/nuclear receptor co-expression system” (City of Hope, priority 1999, dated 2005)
